In patent US11879149B2, “Quantification method of ethanolamine phosphate, oxidoreductase for quantification, composition for quantification, kit for quantification and sensor for quantification” (KIKKOMAN CORPORATION, priority 2018, dated 2024):

Tests used:
Format in all cases: biochemical
[1] = Oxidase activity measurement of LcAOX, LrHP, SrAOX3925, SrAOX3926, SrEAOX (4-AA/TOOS/POD, A555); details: pH 7.5; for oxidase activity of the crude enzymatic solution against EAP: crude enzyme solution, 50 mM EAP final; for oxidase activity of the crude enzymatic solution against EAP / oxidase activity against EAP after being purified: 37° C.; for oxidase activity against EAP after being purified: purified preparation
Protocol: Oxidase activity was measured for LcAOX, LrHP, SrAOX3925, SrAOX3926, SrEAOX expressed by the methods described above. After incubating 580 μl of a reagent consisting of the composition of Table 12 at 37° C. for 5 minutes, 20 μl of a substrate solution (1500 mM EAP) was added and mixed, and the amount of change at A555 (ΔAS) per 1 minute at 37° C. was measured using the spectrophotometer (U-3900, manufactured by Hitachi High-Tech Science Corporation). Subsequently, 20 μl of ion-exchanged water was added instead of the substrate solution and mixed, and the amount of change at A555 (ΔA0) per 1 minute at 37° C. was measured.
The oxidase activity was calculated based on the following formula: Oxidase activity (U/ml)=(ΔAS−ΔA0)×600.0×df/(39.2×0.5×x)=30.6×(ΔAS−ΔA0)×df/x • 39.2: Millimolar extinction coefficient (mM^−1cm^−1) of 4-AA-TOOS Condensation dye for 555 nm-wavelength light • df: Dilution rate of enzyme solution (Quantification of EAP by LrHP)

[2] = Quantification of EAP by LrHP by electrochemical methods (chronoamperometry); details: +600 mV (Ag/AgCl); 0 μM to 1400 μM and 0 μM to 170 μM EAP; FIG. 6, FIG. 7
Protocol: 20 μl of 150 mM Bicine-NaOH buffer solution (pH 7.5), 15 μl of 1.5 M potassium chloride solution, and 5 μl of LrHP solution (0.14 U/ml) were applied and mixed on a SCREEN-PRINTED ELECTRODES (manufactured by DropSens, Product Number DRP-C110). A dedicated connector (DRP-CAC) was then used to connect to ALS electrochemical analyzer 814D. Chronoamperometric measurements were performed at +600 mV (Ag/AgCl). Subsequently, 2 μl of EAP solution at each concentration was added, and the current value at 100 seconds after the initiation of measurement was recorded. Similar experiments were carried out using 5 μl of ultrapure water (ion-exchanged water) instead of LrHP solution as a control experiment.

[3] = Evaluation of substrate specificity of crude enzyme solution (PMS/DCIP, 96-well plate); details: 5 mM substrate, potassium phosphate buffer pH 8.0, PMS
Protocol: An activity measurement using 2, 6-Dichlorophenolindophenol (DCIP) was performed in a 96-well plate. […] As the substrate, taurine (manufactured by Fujifilm Wako Pure Chemical Corporation), ethanolamine phosphate (EAP, manufactured by Fujifilm Wako Pure Chemical Corporation), ethanolamine (manufactured by Tokyo Chemical Industry, Co., Ltd.), and benzylamine (manufactured by Tokyo Chemical Industry Co., Ltd.) were used.

Molecule | oxidase activity of the crude enzymatic solution against EAP [1] [U/L] | oxidase activity against EAP after being purified [1] [U/ml] | other results
SrAOX3926: amine oxidase derived from Syncephalastrum racemosum, GenBank ID ORZ03926.1, SEQ ID NO: 30 (protein, listed as Syncephalastrum racemosum) MTVSAVIHPLDPLSPEEIRHASAIIRRERSADKTIFIFNSISLREPPKDQVLAHFGWAAGPKPAQIDRQAFVVLIDRPSGLVHEIIVSLTTSSVVSWNRKQGVQPTLHVQEMLEAEEVMLKDERVIEECRKLGIEDMSLVFADTWGVGWHKTKGKRLMQALMYMRTSPDDNQYAHPLDFTPLYDVNEQKVIDVLVAKRRNSKFERPVIPRADHQFLPEHLGEGNLRKDIKPIEIIQPEGVSFQIRGHEIDWQKWNLHIGFNYREGLVISNVSYKDMDGTVRPVFYRVSLAEMVVPYANPYEPYNHKMAFDVGEYGLGNLTNSLELGCDCVGSIFYMDGVCSDLKGDAWVIPNAICIHEEDTGLLFKHTDFRNNKAHSARSRRLVISHIVTAANYDYGLYYYFYQDGTFQYEVKATGELNTHVLAEDENPAPYGTIVAPQIDAQHHQHLFSMRIDPMVDGPTNSVAQVDVVASDLPVGHPDNAVGNAFSPITTIYANTDEAQARANGETSRYWKIINEDKIHPYTREPVGFKLMCPNTPPMLPKPGSIAYERAVFASKTVWVTPYDAEQLFPGGFYCYQSDPADRLGLPEWTKGKKDVKNKDIVLWLTFGLTHIPRVEDFPIMPVETCGFMLKPCNFFLANPGIDIPASDKHSTKSAYAHALTNGANGTGNGSTNGSSCCNKNY | 0.2 | – | –
LrHP: hypothetical protein derived from Lichtheimia ramosa, GenBank ID CDS02610.1, SEQ ID NO: 20 (protein, listed as Lichtheimia ramosa) MSSSPIKPYPLDPLTADEIRRAAALIRETRGQDTTYVFNSLTLKEPSKQQMMSYLGWTNSPSHPKPVTIDREVFAVLIDRPSGLVHEMTVNLDKNQVTRWNKVEGRQPTVNVFEMLEAEREILKDERVKEQCRQLGINDMSMVFADPWGVGYHEIKGKRLVQALMYARTSPDDNQYAHPLDFNPLYDVNAKKVIDIIVSKRRNSSFDRPVIPMANHHFLPEHLGQDRLRKDIKPIEITQPQGVSFSIRDGHQLHWQKWDMHLSFNYREGLVINNLSYRDMDGTVRPIIYRMSLSEMVVPYANPYKPYNHKMAFDVGEYGLGNLTNSLELGCDCVGKICYLDATLSDLNGDPWQIPNAICIHEEDTGLLFKHTDYRTGKAHSARSRRLVISHIVTAANYDYGLYYYFYQDGTIQYEVKATGELNTQVLAADEDAAPYGTIVAPQVDAQHHQHLFSMRIDPMVDGPNNSVAEVDVVASDLPVGHPHNSIGNSFYPVTKVFNTTDEAKTMASIERHRSWKIINENKIHPYAKQPVGFKMMAHPTPPLLPKPGSIVYERAMFASKTLWVTPYNEEQRYPGGFYCYQSEPSENLGLPQWTKETQNVRDTDIVCWLNFGITHIPRVEDFPIMPIETCGVMLKPVNFFLGNPGIDIPPSTRQSTKSAYATEATCCRKNNL | 5.8 | 0.31 | oxidase activity of purified LrHP solution used in the quantification reagent ([1]; final concentration of 50 mM EAP): 0.14 U/ml (*purified LrHP solutions); current value at 100 seconds after the initiation of measurement with increasing EAP [2]: current value also increased
SrEAOX: ethanolamine oxidase derived from Syncephalastrum racemosum, GenBank ID BAU20376.1, SEQ ID NO: 35 (protein, listed as Syncephalastrum racemosum) MTLPTTIHPLDPLSPEEIRHVSEIIRKQRAADETTYIFNSIALREPPKEQILAHFGWTDGPKPVQIDRQAFAVLIDRPSGLVHEIIVSITTASIVSWETKEGVQPTLHVQEMLEAEQVMLKDERVIEECRKLGIEDMSMVFADTWGVGWHKTKGKRLMQALMYMRTSPDDNQYAHPLDFTPLYDVNEQKVIDVLVAKRRNSKFERPVIPRADRQFLPEHLGEENLRKDIKPIEITQPQGVSFQIRGHEIDWQKWNLHVGFNYREGLVINNVSYKDMDGTVRPMFYRVSLAEMVVPYANPYEPYNHKMAFDVGEYGLGNLTNSLELGCDCVGSIFYMDGVCSDIKGDAWVIPNAICIHEEDTGLLFKHTDFRNNKAHSARSRRLVISHIVTAANYDYGLYYYFYQDGTFQYEVKATGELNTHVLAEDEDPAPYGTIVAPQVDAQHHQHLFSMRIDPMVDGPTNSVAQVDVVASDLPVGHPDNAVGNAFSPVTTIYADTDEARARANGETSRYWKIINETRIHPYTKEPVGFKLMCPNTPPMLPKPGSIAYERAVFASNTVWVTPYDAEQLFPGGFYCYQSDPADRLGLPEWTREKKDVKNKDIVLWLTFGLTHIPRVEDFPIMPVETCGFMLKPCNFFLANPGIDIPASDRHSSKSAYAPAVANGEYGITNGTTNGSSCCSKGH | 16 | – | –
LcAOX: amine oxidase derived from Lichtheimia corymbifera, GenBank ID CDH56199.1, SEQ ID NO: 15 (protein, listed as Lichtheimia corymbifera) MSSSSSATPKPHPLDPLSADEIRRAAAIIREKRGQDTSYVFNSLTLKEPAKQQMMLYLGWVNSSSQPKPVTIDREVFAVLIDRPSGLVHEMTVNLDKSAVTSWNKVEGRQPTINIFEMLEAEREILKDERVKDQCRQLGITDMSMVYADPWGVGYHEIKGKRLVQALLYARTSPDDNQYAHPLDFNPLYDLNAKKVLDIVVSKRRNSSFERPVIPMANHHFLPEHLGEDRLRKDIKPIEITQPQGVSFSIRDGHQLHWQKWDMHLSFNYREGLVINNLSYRDMDSTVRPIIYRMSLAEMVVPYANPYKPYNHKMAFDVGEYGLGNLTNSLELGCDCVGKIGYLDAVLSDLNGDPWHIPNAICIHEEDTGLLFKHSDYRTGKAHSARSRRLVISHIVTAANYDYGLYYYFYQDGTIQYEVKATGELNTQVLAEDEDAAPYGTIVAPQVDAQHHQHLFSMRIDPMLDGPNNSVAEVDVVASDLPVGHPHNSVGNSFYPVTKVFNTTDEAKTMASVERHRTWKIINESKIHPYAKQPVGFKMMAHPTPPLLPKPGSIVYERAMFASKTLWVTPHNDKQLYPGGFYCYQSEPSENLGLPQWTKETQNVRDTDIVCWLNFGITHIPRVEDFPIMPIETCGIMLKPANFFLCNPGIDIPPSTRQSTKSAYANDATCCRKNNL | 1.8 | 0.11 | –
LaTDH: large subunit of taurine dehydrogenase from Paracoccus denitrificans, amino acid sequence SEQ ID NO: 1, expressed in E. coli (protein, Paracoccus denitrificans) MQAIEKRAGALPYDPLYDPVTARGLGPRSDYAPTYWIGTAGAPPPDDGPVTGDMDADVVVIGSGYTGLSCALHLAKMHGIKAVVLEANGVAYGCSTRNGGQAQVSSGRLKRSQWIERWGLDVARRLHAEVCEGFDLFRGLIRDHAIDCDPQDGGHYYIAHKASAMPALEKETALLRDTFGYDARMISRDELHETVARDQEAHGAMWEADGVGIHAAKLAFGYLRAARELGARVHVDSPVQGWEYRNGVHHLRTPGGTVRARRVAVATAAYAPRSLHPRLRDRLMPIMSNSIVTRVLTPAELEAVGIRKLSPLTDTRTLRHYYRLLPDNRLQIGSRAAITGRDAANPAHLDALREGMARKFPALRGIALDYSWWGWVDVSHDMMPRITGLPDLPGAFYALGYGGNGVMYSAMAGRRMAQLVAGEAVPDLPIFNNELPHEGWRTPFRRLGQWGLYKFYHYRDERR | – | – | degree of loss of blue color derived from DCIP (dehydrogenase activity), substrate benzylamine [3]: did not react; degree of loss of blue color derived from DCIP (dehydrogenase activity), substrate ethanolamine [3]: did not react; degree of loss of blue color derived from DCIP (dehydrogenase activity), substrate ethanolamine phosphate [3]: also reacted; degree of loss of blue color derived from DCIP (dehydrogenase activity), substrate taurine [3]: reacted most
SrAOX3925: amine oxidase derived from Syncephalastrum racemosum, GenBank ID ORZ03925.1, SEQ ID NO: 25 (protein, listed as Syncephalastrum racemosum) MTIVSPSHPLDPLTPSEIRHVAEIVRATRSPDDKTPRDYIFSSICLKEPHKDKTLAYLQSVSEEAAALMPEREALVILIDRPSGLVHEILVSITDEKVKSAKTLKNVQPTQHVLEMIEAEKIITKDPSVIEECRKLGITDMKNVYADPWTVGYHAQFKSSKRLMQALMYMRTSPDDNQYAHPLDFVPIYDVNAQKVVEILRQETSEASKYDRPTVPLENHQFLPEHIGVENLRKDIKPIEITQPEGVSFTVRGREIEWQNWSMHVGFNYREGVIINNVSYKDKGNVRPLFYRVSVSEMVVPYAHPKEPFNHKMAFDVGEYGLGNLTNSLELGCDCLGSIYYMDGVCNNLDGEPWVIPNAICIHEEDTGLLFKHTDYRTDKAHSARSRRLVISQIVTAANYDYGLYFYFYQDGTFQYEVKATGELNTQVFAEDENPAPYGTAVAPQVVGQHHQHLFMMRIDPMLDGRLNSVAQVDVLPSEYPVGHVENPIGNAFSPITTIYSDTTEAQAHGNLESSRTWKIINESKLHPYTKEPVGYKLVSPNTPPMLPKPGSLVYERAKFATKTIWVTPYDPDQIYPAGFYCSQSPGDDSMGLPAWTKEPQSVRGRDVVVWLTFGLTHIPRVEDFPVMPVETCGWALKACNFFLGNPGIDIPAAQKGTSKRVNGACCA | 2.6 | 0.16 | –
